Earlier results on 1 substance are cited in patent US20020094542A1, “Drugs and methods for treating cancer” (priority 1989, published 2002).

For the data set the following is noted: patients with kidney transplants.

As to “OKT3: monoclonal heterologous AB used clinically in patients with kidney transplants”, the side-effects of treatment entry was “low (flu-like)”.
